From the supplement of paper PMC10126150
± gives the standard deviation of the averaged measurements.

Tested on: ATP
Assay: switch fluorescence ratio, 500 uM ATP over buffer (Cy3 cluster intensity, sum of 5 cycles each) (fold (ratio)); higher = stronger signal-on switching upon ATP binding; sequences stand for … in TCGTCGGCAGCGTCAGATGTGTATAAGAGACAGTTTTTTTTTTTTTTTTTTTTTTTTT…TC
Conditions: aptamer strand: ATP DNA aptamer (quencher-CACCTGGGGGAGTATTGCGGAGGAAGG + anchor), 100 nM annealed; ATP concentration: 500 uM
Outline: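 Cy3-labelled switching-strand clusters on a modified Illumina MiSeq flow-cell were annealed to 100 nM quencher-labelled ATP aptamer, imaged in selection buffer, then imaged after 15 min with 500 uM ATP at 22 °C. Five buffer/ATP cycles ran, with NaOH stripping and re-annealing between them. The fluorescence ratio is summed target-cycle over summed buffer-cycle Cy3 intensity per cluster, averaged per switch-domain sequence. Clusters outside 100-1000 RFU were excluded.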
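Note: ATP exposure 15 min at 22 °C before imaging.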

Sequence | switch fluorescence ratio
ATGGCTGTTT | 0.972 ± 0.0012
ATGGCTTAAG | 1.006 ± 0.0055
ATGGGAAGGG | 1.01 ± 0.015
ATGGGAGGTC | 0.97 ± 0.0071
ATGGGATAAG | 0.998 ± 0.029
ATGGGCGCAG | 0.99 ± 0.05
ATGGGCGCGG | 0.9903 ± 0.0066
ATGGGCGGCG | 0.993 ± 0.021
ATGGGCTAGG | 0.9702 ± 0.0058
ATGGGCTATT | 0.994 ± 0.038
ATGGGGAAGC | 1.03 ± 0.058
ATGGGGAGGT | 0.968 ± 0.025
ATGGGGATTG | 0.983 ± 0.048
ATGGGGCGTG | 0.974 ± 0.016
ATGGGGGATG | 0.973 ± 0.028
ATGGGGGATT | 1 ± 0.025
ATGGGGGCAG | 1.03 ± 0.027
ATGGGGGCGA | 0.978 ± 0.014
ATGGGGGCGG | 1 ± 0.021
ATGGGGGGGG | 1.01 ± 0.039
ATGGGGGGTG | 1 ± 0.035
ATGGGGGTA | 1.004 ± 0.002
ATGGGGGTGG | 0.99 ± 0.0087
ATGGGGTAGG | 0.995 ± 0.022
ATGGGGTATG | 0.987 ± 0.024

Sequence | switch fluorescence ratio
ATGGGGTATT | 0.989 ± 0.015
ATGGGGTTGT | 0.966 ± 0.019
ATGGGTATTT | 1.02 ± 0.035
ATGGGTCTTT | 0.9811 ± 0.0016
ATGGGTGCTT | 1.01 ± 0.039
ATGGGTGGGT | 0.994 ± 0.034
ATGGGTTATG | 0.999 ± 0.016
ATGGGTTATT | 0.98 ± 0.045
ATGGGTTGGA | 1.008 ± 0.0088
ATGGGTTGGT | 0.981 ± 0.016
ATGGGTTTGT | 1.02 ± 0.021
ATGGTAGATA | 1.02 ± 0.0041
ATGGTAGG | 0.9749 ± 0.0017
ATGGTAGGCT | 0.98 ± 0.032
ATGGTAGTTG | 0.985 ± 0.018
ATGGTATCGT | 0.986 ± 0.018
ATGGTCTCTT | 0.987 ± 0.013
ATGGTCTGTT | 1 ± 0.036
ATGGTGAGTT | 1 ± 0.015
ATGGTGGATG | 0.9626 ± 0.0052
ATGGTGGGTG | 1.03 ± 0.046
ATGGTGTAGC | 0.986 ± 0.016
ATGGTTAACT | 1.03 ± 0.016
ATGGTTAAGG | 0.9812 ± 0.0085
ATGGTTGGGA | 0.998 ± 0.024

Sequence | switch fluorescence ratio
ATGGTTGTTG | 0.9628 ± 0.0034
ATGGTTGTTT | 0.995 ± 0.02
ATGGTTTAGA | 1.03 ± 0.031
ATGGTTTGGC | 1 ± 0.049
ATGTAACGTT | 1.006 ± 0.0088
ATGTAAGCCC | 0.992 ± 0.022
ATGTAAGGGG | 0.9951 ± 0.0039
ATGTAATAA | 1.022 ± 0.0049
ATGTAATAAT | 0.983 ± 0.027
ATGTACAATT | 1.0917 ± 0.00014
ATGTACAGGA | 1.05 ± 0.056
ATGTACGGAT | 1.02 ± 0.059
ATGTACGGGG | 1.04 ± 0.028
ATGTACTACT | 1.07 ± 0.068
ATGTACTCGC | 1.08 ± 0.031
ATGTAGAGAT | 0.97 ± 0.016
ATGTAGAGG | 0.988 ± 0.013
ATGTAGAGGG | 1.01 ± 0.02
ATGTAGGCCA | 1.04 ± 0.053
ATGTAGTCGG | 0.978 ± 0.012
ATGTATAGGG | 1 ± 0.0019
ATGTATTATG | 0.956 ± 0.026
ATGTATTGCG | 0.988 ± 0.044
ATGTCATATG | 0.994 ± 0.031
ATGTCCATTA | 0.994 ± 0.01

Sequence | switch fluorescence ratio
ATGTCCGTGG | 0.99 ± 0.014
ATGTCGAGGT | 1.01 ± 0.035
ATGTCGATGG | 0.9908 ± 0.0065
ATGTCGGATT | 1.002 ± 0.0021
ATGTCGGGCT | 0.982 ± 0.042
ATGTCTAAAA | 0.9887 ± 0.0065
ATGTCTTTTG | 1.03 ± 0.022
ATGTGACAGC | 0.955 ± 0.062
ATGTGAGATA | 1.02 ± 0.015
ATGTGATTGG | 1.01 ± 0.027
ATGTGCAGGC | 0.969 ± 0.026
ATGTGGATTG | 1.016 ± 0.009
ATGTGGCCTG | 0.988 ± 0.056
ATGTGGGGGC | 0.994 ± 0.03
ATGTGGGGTG | 1.06 ± 0.053
ATGTGGGTTA | 1.01 ± 0.022
ATGTGGTAGC | 0.9523 ± 0.004
ATGTGGTCTG | 0.9777 ± 0.0014
ATGTGGTGTC | 1.02 ± 0.015
ATGTGTAGTT | 0.992 ± 0.019
ATGTGTCCT | 1.016 ± 0.0039
ATGTGTCGTC | 1.01 ± 0.057
ATGTGTCTGC | 1.04 ± 0.035
ATGTGTCTGG | 0.998 ± 0.011
ATGTGTGGT | 0.959 ± 0.023

Sequence | switch fluorescence ratio
ATGTGTGGTT | 1.12 ± 0.15
ATGTGTTCTG | 0.931 ± 0.031
ATGTGTTGGG | 0.973 ± 0.032
ATGTTAAATG | 1 ± 0.016
ATGTTAAATT | 0.976 ± 0.014
ATGTTAAGGA | 0.998 ± 0.012
ATGTTAGACT | 1.021 ± 0.0071
ATGTTAGGGA | 1.034 ± 0.0052
ATGTTAGGGC | 0.975 ± 0.032
ATGTTAGTGA | 0.979 ± 0.042
ATGTTATATG | 1.004 ± 0.0036
ATGTTCAAAG | 0.975 ± 0.017
ATGTTCAAGA | 1.01 ± 0.015
ATGTTCAGTG | 0.985 ± 0.03
ATGTTCGGCC | 1.012 ± 0.01
ATGTTGAGTG | 0.995 ± 0.031
ATGTTGGGCG | 0.996 ± 0.052
ATGTTGGGCT | 0.962 ± 0.018
ATGTTGGTAC | 1.04 ± 0.02
ATGTTGGTCG | 0.974 ± 0.028
ATGTTGGTGT | 0.991 ± 0.045
ATGTTTACTG | 1.033 ± 0.0082
ATGTTTATTG | 0.998 ± 0.018
ATGTTTCATT | 0.9727 ± 0.0052
ATGTTTGAGG | 0.989 ± 0.029

Sequence | switch fluorescence ratio
ATGTTTGGGG | 1.03 ± 0.084
ATGTTTGTCT | 0.97 ± 0.039
ATGTTTTAAA | 0.9756 ± 0.0086
ATGTTTTTGT | 0.989 ± 0.042
ATTAAAATGG | 1.02 ± 0.017
ATTAAAGCCC | 1.02 ± 0.039
ATTAAATCGG | 1.01 ± 0.016
ATTAAATTAA | 1.034 ± 0.01
ATTAAGAATT | 0.9986 ± 0.0027
ATTAAGCATG | 1.004 ± 0.0088
ATTAAGGGGG | 0.9982 ± 0.0069
ATTAAGGGTT | 1.02 ± 0.025
ATTAAGTGTA | 0.98 ± 0.019
ATTAATAAAG | 0.9984 ± 0.0086
ATTAATAGCT | 1.05 ± 0.0049
ATTAATAGTG | 0.967 ± 0.028
ATTAATGGGA | 0.9986 ± 0.0061
ATTAATTAGA | 0.975 ± 0.041
ATTAATTAGG | 0.989 ± 0.015
ATTAATTTCT | 1 ± 0.024
ATTAATTTTA | 1.02 ± 0.041
ATTACCAATT | 2.24 ± 1.8
ATTACCAGGT | 1.27 ± 0.048
ATTACCTATA | 1.05 ± 0.044
ATTACGGCAG | 1.02 ± 0.059

Sequence | switch fluorescence ratio
ATTACTAGTT | 0.9996 ± 0.0035
ATTACTCGCG | 1.05 ± 0.012
ATTACTTTGC | 1.05 ± 0.021
ATTAGAAAGC | 0.981 ± 0.039
ATTAGAATGT | 1.02 ± 0.023
ATTAGATGGT | 1.02 ± 0.024
ATTAGCACGG | 0.997 ± 0.013
ATTAGCAGCA | 1.05 ± 0.025
ATTAGGATAG | 1 ± 0.054
ATTAGGATTT | 0.998 ± 0.0097
ATTAGGCATG | 1 ± 0.042
ATTAGGTCGG | 0.979 ± 0.023
ATTAGGTTAT | 1 ± 0.048
ATTAGTAGGG | 0.9807 ± 0.0041
ATTAGTGATG | 0.989 ± 0.016
ATTAGTGTTC | 0.987 ± 0.043
ATTAGTGTTG | 0.956 ± 0.022
ATTAGTGTTT | 0.976 ± 0.027
ATTAGTTGGG | 1.0052 ± 0.00057
ATTAGTTTTT | 0.9731 ± 0.0076
ATTATAAAAC | 1.03 ± 0.045
ATTATAAAAG | 0.989 ± 0.012
ATTATAGCGG | 0.9984 ± 0.0073
ATTATAGGG | 1 ± 0.015
ATTATAGTGG | 1.04 ± 0.02

Sequence | switch fluorescence ratio
ATTATAGTTT | 1.03 ± 0.049
ATTATATAGC | 0.996 ± 0.031
ATTATCAGCG | 1.01 ± 0.019
ATTATCATGT | 1 ± 0.074
ATTATCCAGC | 1.01 ± 0.017
ATTATCTGCG | 1 ± 0.011
ATTATCTGTG | 0.97 ± 0.039
ATTATCTTCT | 0.994 ± 0.061
ATTATGAAAG | 0.969 ± 0.056
ATTATGCCG | 0.993 ± 0.06
ATTATGGTAA | 1 ± 0.018
ATTATGTATC | 0.996 ± 0.011
ATTATTAGCT | 0.996 ± 0.012
ATTATTGGTT | 1.02 ± 0.029
ATTATTGTGT | 0.9903 ± 0.0075
ATTATTTTGC | 0.9464 ± 0.0026
ATTCAACAAT | 1 ± 0.016
ATTCAATCGG | 0.98 ± 0.024
ATTCAATTGT | 0.974 ± 0.013
ATTCACTCGT | 1.11 ± 0.13
ATTCACTCTA | 1.08 ± 0.026
ATTCAGGTGT | 2.66 ± 0.29
ATTCATAGTA | 0.9772 ± 0.0064
ATTCATCGCT | 1.0258 ± 0.00018
ATTCATGAT | 0.969 ± 0.044
